In the Human Domainome abundance scans (Beltran et al. 2025):

B1: Transitional endoplasmic reticulum ATPase, residues 26 to 106; numbered along this chain, P55072 (parent)
chain: LIVDEAINEDNSVVSLSQPKMDELQLFRGDTVLLKGKKRREAVCIVLSDDTCSDEKIRMNRVVRNNLRVRLGDVISIQPCP

Variants of: B1
Test: abundance fitness (aPCA) (normalised: wild type 0, dead -1); higher = more abundant; growth selection in yeast, the domain comes from the species named
Conditions: Homo sapiens

Abundance fitness: each site, then its substitutions
M21: G -0.894; Q -0.752; P -0.902; C -0.435; V -0.759; K -0.881; S -1.03; R -0.888; E -0.731; H -1.21; A -0.638; L 0.048; I -0.124; T -0.825; Y -0.516
Q25: I -0.043; P -1; K -0.013; W -0.256; E -0.156; M -0.106; L -0.149; S 0.027; N 0.038; C 0.006; A -0.116; T -0.102; V -0.202; F -0.129; R -0.081; G -0.045; Y -0.485; D 0.048; H -0.168
S17: D -1.01; Q -0.671; M -0.995; P -0.365; L -0.854; C -0.381; G -0.153; F -0.698; I -0.79; V -1.03; H -0.396; Y -0.806; R -0.431; K -0.361; A -0.174
L26: A -0.36; E -1.02; R -0.939; W -0.447; C -0.346; I -0.078; Q -0.763; P -0.859; F -0.285; M -0.047; S -0.838; T -0.462; D -0.768; V -0.027; H -0.609
D22: T -0.037; E -0.038; Y -0.067; W -0.281; C -0.083; V -0.049; R -0.015; K -0.063; I -0.118; N -0.036; A -0.109; F -0.1; G -0.101; Q 0.023; P -0.862; S -0.084; L -0.008; M -0.06
T31: H -0.048; E 0.041; N -0.023; D -0.27; R 0.053; S -0.028; I -0.235; F -0.198; A -0.089; M -0.004; L -0.129; C -0.262; Y -0.161; P -0.204; V -0.104; W -0.134; K 0.077; G -0.063
L24: E -0.709; D -0.759; R -0.509; A -0.553; F -0.321; Y -0.224; W -0.265; V -0.429; M -0.249; Q -0.516; C -0.574; N -0.47; I -0.338; S -0.74; P -0.551; G -0.775; K -0.98; H -0.366; T -0.705
D30: T -0.051; I -0.68; S -0.175; Y -0.732; W -0.286; M -0.047; R -0.258; Q 0.103; N -0.176; C 0.035; E 0.108; L -0.468; G -0.107; F -0.638; A 0.005; K -0.257; H -0.11
R28: L 0.012; N 0.093; Q -0.008; V 0.021; G -0.027; C 0.053; T 0.034; M 0.011; I -0.061; K 0.064; S -0.009; P -0.012; A 0.085; F -0.401; H 0.226; E 0.094
K35: D -0.455; M -0.02; G -0.088; S 0.031; R 0.006; P -0.869; T 0.117; Y -0.229; W -0.154; L -0.058; N 0.032; A -0.096; Q 0.078; C 0.04; E -0.116
